The record followed here is patent US20230049152A1 (Genentech, published 2023).

Assay [1] addresses T1, human CCR8 (human, UniProt P51685 1-355).
T1 construct: the assay field says which; also called hCCR8; huCCR8
Nature of the assay: flow cytometry, CHO-huCCR8.Gna15 cells, relative to rb.Ab5. The method, then:
(§1) Evaluation of CCR8 binding of the humanized variants with a hIgG1 Fc involved screening by flow cytometry, and comparing the relative EC₅₀ and MFI on human CCR8 CHO cells to the parental rabbit antibodies. Specifically, stable CHO-huCCR8.Gna15 cells were stained with various concentrations (starting from 10 ug/ml or 66.66 nM, 1:4 serial dilution for total 8 concentration points) of Ab4 and Ab5 variants at 4° C. for 30 minutes, then washed twice with FACS buffer (PBS with 0.5% BSA and 0.2 mM EDTA) and followed by staining with AF647-anti-hIgG at 4° C. for 15 min. Cells were washed twice with FACS buffer, and re-suspended in FACS buffer with propidium iodide (0.5 ug/ml) and analyzed with iQue3 (Sartorius).

In assay [2] the target is T1, human CCR8. In words: flow cytometry, CHO-huCCR8.Gna15 cells, relative to rb.Ab4. The method, then: as §1

B1: hu.Ab5.H2L1 (antibody, human IgG1, kappa)
heavy: not shown
light: DIQVTQSPSSLSASVGDRVTITCQASENIANALAWYQQKPGKPPKFLIYGASNLASGVPSRFSGSGSGTDFTFTISSLQPEDIATYYCQQAYYGNSFVEGTFGGGTKVEIKRTVAAPSVFIFPPSDEQLKSGTASVVCLLNNFYPREAKVQWKVDNALQSGNSQESVTEQDSKDSTYSLSSTLTLSKADYEKHKVYACEVTHQGLSSPVTKSFNRGEC
Turning to B1, in assay [1], the “Relative EC50” value worked out at 1.1 ratio and the “Relative MFI” value is 0.93 ratio.

B2: hu.Ab5.H3L1 (antibody, human IgG1, kappa, V domains shown)
VH: EQQLLESGGGLVQPGGSLRLSCAASGIDLSTYAMGWVRQAPGKGLEWIGLIHRSGRTYYATWAKGRFTISKDSSKTTVYLQMNSLRAEDTAVYFCTRSYPDYSATASIWGPGTTVTVSS
VL: DIQVTQSPSSLSASVGDRVTITCQASENIANALAWYQQKPGKPPKFLIYGASNLASGVPSRFSGSGSGTDFTFTISSLQPEDIATYYCQQAYYGNSFVEGTFGGGTKVEIKR
B2: in assay [1], the “Relative EC50” value worked out at 1.5 ratio and the “Relative MFI” value was found to be 1 ratio.

B3: hu.Ab5.H6L1 (antibody, human IgG1, kappa, V domains shown)
VH: EQQLLESGGGLVQPGGSLRLSCAVSGIDLSTYAMGWVRQAPGKGLEWIGLIHRSGRTYYATWAKGRFTISRDSSKTTVYLQMNSLRAEDTAVYFCTRSYPDYSATASIWGPGTTVTVSS
VL: DIQVTQSPSSLSASVGDRVTITCQASENIANALAWYQQKPGKPPKFLIYGASNLASGVPSRFSGSGSGTDFTFTISSLQPEDIATYYCQQAYYGNSFVEGTFGGGTKVEIKR
In the case of B3, in assay [1], the “Relative EC50” value turned out to be 2.4 ratio and the “Relative MFI” value came out at 0.97 ratio.

B4: hu.Ab5.H4L1 (antibody, human IgG1, kappa, V domains shown)
VH: EQQLLESGGGLVQPGGSLRLSCAVSGIDLSTYAMGWVRQAPGKGLEWVGLIHRSGRTYYATWAKGRFTISKDSSKTTVYLQMNSLRAEDTAVYFCTRSYPDYSATASIWGPGTTVTVSS
VL: DIQVTQSPSSLSASVGDRVTITCQASENIANALAWYQQKPGKPPKFLIYGASNLASGVPSRFSGSGSGTDFTFTISSLQPEDIATYYCQQAYYGNSFVEGTFGGGTKVEIKR
In the case of B4, in assay [1], the “Relative EC50” value is 1.5 ratio and the “Relative MFI” value is 0.95 ratio.

B5: hu.Ab5.H10L1 (antibody, human IgG1, kappa, V domains shown)
VH: EQQLLESGGGLVQPGGSLRLSCAVSGIDLSTYAMGWVRQAPGKGLEWIGLIHRSGRTYYATWAKGRFTISKDSSKTTVYLQMNSLRAEDTAVYYCTRSYPDYSATASIWGPGTTVTVSS
VL: DIQVTQSPSSLSASVGDRVTITCQASENIANALAWYQQKPGKPPKFLIYGASNLASGVPSRFSGSGSGTDFTFTISSLQPEDIATYYCQQAYYGNSFVEGTFGGGTKVEIKR
As for B5, in assay [1], the “Relative EC50” value worked out at 1.2 ratio and the “Relative MFI” value stood at 0.87 ratio.

B6: hu.Ab5.H5L1 (antibody, human IgG1, kappa, V domains shown)
VH: EQQLLESGGGLVQPGGSLRLSCAVSGIDLSTYAMGWVRQAPGKGLEWISLIHRSGRTYYATWAKGRFTISKDSSKTTVYLQMNSLRAEDTAVYFCTRSYPDYSATASIWGPGTTVTVSS
VL: DIQVTQSPSSLSASVGDRVTITCQASENIANALAWYQQKPGKPPKFLIYGASNLASGVPSRFSGSGSGTDFTFTISSLQPEDIATYYCQQAYYGNSFVEGTFGGGTKVEIKR
For the molecule B6, in assay [1], the “Relative EC50” value worked out at 7.6 ratio and the “Relative MFI” value was determined as 0.35 ratio.

B7: hu.Ab5.H7L1 (antibody, human IgG1, kappa, V domains shown)
VH: EQQLLESGGGLVQPGGSLRLSCAVSGIDLSTYAMGWVRQAPGKGLEWIGLIHRSGRTYYATWAKGRFTISKDNSKTTVYLQMNSLRAEDTAVYFCTRSYPDYSATASIWGPGTTVTVSS
VL: DIQVTQSPSSLSASVGDRVTITCQASENIANALAWYQQKPGKPPKFLIYGASNLASGVPSRFSGSGSGTDFTFTISSLQPEDIATYYCQQAYYGNSFVEGTFGGGTKVEIKR
For the molecule B7, in assay [1], the “Relative EC50” value was 2.2 ratio and the “Relative MFI” value came to 0.96 ratio.

B8: hu.Ab5.H12L1 (antibody, human IgG1, kappa, V domains shown)
VH: EVQLLESGGGLVQPGGSLRLSCAASGIDLSTYAMGWVRQAPGKGLEWVSLIHRSGRTYYATWAKGRFTISRDNSKNTLYLQMNSLRAEDTAVYYCTRSYPDYSATASIWGQGTTVTVSS
VL: DIQVTQSPSSLSASVGDRVTITCQASENIANALAWYQQKPGKPPKFLIYGASNLASGVPSRFSGSGSGTDFTFTISSLQPEDIATYYCQQAYYGNSFVEGTFGGGTKVEIKR
For the molecule B8, in assay [1], the “Relative EC50” value was determined as 2.3 ratio and the “Relative MFI” value was found to be 0.26 ratio.

B9: hu.Ab5.H11L1 (antibody, human IgG1, kappa)
heavy: not shown
light: DIQVTQSPSSLSASVGDRVTITCQASENIANALAWYQQKPGKPPKFLIYGASNLASGVPSRFSGSGSGTDFTFTISSLQPEDIATYYCQQAYYGNSFVEGTFGGGTKVEIKRTVAAPSVFIFPPSDEQLKSGTASVVCLLNNFYPREAKVQWKVDNALQSGNSQESVTEQDSKDSTYSLSSTLTLSKADYEKHKVYACEVTHQGLSSPVTKSFNRGEC
Regarding B9, in assay [1], the “Relative EC50” value came out at 1.3 ratio and the “Relative MFI” value worked out at 0.87 ratio.

B10: hu.Ab5.H9L1 (antibody, human IgG1, kappa, V domains shown)
VH: EQQLLESGGGLVQPGGSLRLSCAVSGIDLSTYAMGWVRQAPGKGLEWIGLIHRSGRTYYATWAKGRFTISKDSSKTTLYLQMNSLRAEDTAVYFCTRSYPDYSATASIWGPGTTVTVSS
VL: DIQVTQSPSSLSASVGDRVTITCQASENIANALAWYQQKPGKPPKFLIYGASNLASGVPSRFSGSGSGTDFTFTISSLQPEDIATYYCQQAYYGNSFVEGTFGGGTKVEIKR
For B10, in assay [1], the “Relative EC50” value came out at 1.3 ratio and the “Relative MFI” value amounted to 0.92 ratio.

B11: hu.Ab5.H8L1 (antibody, human IgG1, kappa, V domains shown)
VH: EQQLLESGGGLVQPGGSLRLSCAVSGIDLSTYAMGWVRQAPGKGLEWIGLIHRSGRTYYATWAKGRFTISKDSSKNTVYLQMNSLRAEDTAVYFCTRSYPDYSATASIWGPGTTVTVSS
VL: DIQVTQSPSSLSASVGDRVTITCQASENIANALAWYQQKPGKPPKFLIYGASNLASGVPSRFSGSGSGTDFTFTISSLQPEDIATYYCQQAYYGNSFVEGTFGGGTKVEIKR
As to B11, in assay [1], the “Relative EC50” value turned out to be 1.4 ratio and the “Relative MFI” value worked out at 0.94 ratio.

B12: hu.Ab4.H2L1 (antibody, human IgG1, kappa)
heavy: not shown
light: DYQMTQSPSSLSASVGDRVTITCQASQSISSYLSWYQQKPGKRPKLLIYKASTLASGVPSRFSGSGSGTDFTLTISSLQPEDFATYYCQQGYTSSNIDNIFGGGTKVEIKRTVAAPSVFIFPPSDEQLKSGTASVVCLLNNFYPREAKVQWKVDNALQSGNSQESVTEQDSKDSTYSLSSTLTLSKADYEKHKVYACEVTHQGLSSPVTKSFNRGEC
As to B12, in assay [2], the “Relative EC50” value stood at 0.99 ratio and the “Relative MFI” value stood at 1.07 ratio.

B13: hu.Ab4.H6L1 (antibody, human IgG1, kappa, V domains shown)
VH: EQQLLESGGGLVQPGGSLRLSCAVSGFSLSNYAMIWVRQAPGKGLEWVGTISLGGYTYYANWAKGRFTISKDNSKTTVYLQMNSLRAEDTAVYFCARARWSTDSAIYTYAFDPWGPGTLVTVSS
VL: DYQMTQSPSSLSASVGDRVTITCQASQSISSYLSWYQQKPGKRPKLLIYKASTLASGVPSRFSGSGSGTDFTLTISSLQPEDFATYYCQQGYTSSNIDNIFGGGTKVEIKR
Take B13: in assay [2], the “Relative EC50” value is 1.06 ratio and the “Relative MFI” value was found to be 0.68 ratio.

B14: hu.Ab4.H8L1 (antibody, human IgG1, kappa, V domains shown)
VH: EQQLLESGGGLVQPGGSLRLSCAVSGFSLSNYAMIWVRQAPGKGLEWVGTISLGGYTYYANWAKGRFTISKDSSKTTLYLQMNSLRAEDTAVYFCARARWSTDSAIYTYAFDPWGPGTLVTVSS
VL: DYQMTQSPSSLSASVGDRVTITCQASQSISSYLSWYQQKPGKRPKLLIYKASTLASGVPSRFSGSGSGTDFTLTISSLQPEDFATYYCQQGYTSSNIDNIFGGGTKVEIKR
Turning to B14, in assay [2], the “Relative EC50” value came to 1.03 ratio and the “Relative MFI” value turned out to be 0.72 ratio.

B15: hu.Ab4.H7L1 (antibody, human IgG1, kappa, V domains shown)
VH: EQQLLESGGGLVQPGGSLRLSCAVSGFSLSNYAMIWVRQAPGKGLEWVGTISLGGYTYYANWAKGRFTISKDSSKNTVYLQMNSLRAEDTAVYFCARARWSTDSAIYTYAFDPWGPGTLVTVSS
VL: DYQMTQSPSSLSASVGDRVTITCQASQSISSYLSWYQQKPGKRPKLLIYKASTLASGVPSRFSGSGSGTDFTLTISSLQPEDFATYYCQQGYTSSNIDNIFGGGTKVEIKR
With B15, in assay [2], the “Relative EC50” value is 1.05 ratio and the “Relative MFI” value stood at 0.44 ratio.

B16: hu.Ab4.H4L1 (antibody, human IgG1, kappa, V domains shown)
VH: EQQLLESGGGLVQPGGSLRLSCAVSGFSLSNYAMIWVRQAPGKGLEWVSTISLGGYTYYANWAKGRFTISKDSSKTTVYLQMNSLRAEDTAVYFCARARWSTDSAIYTYAFDPWGPGTLVTVSS
VL: DYQMTQSPSSLSASVGDRVTITCQASQSISSYLSWYQQKPGKRPKLLIYKASTLASGVPSRFSGSGSGTDFTLTISSLQPEDFATYYCQQGYTSSNIDNIFGGGTKVEIKR
Turning to B16, in assay [2], the “Relative EC50” value came to 0.96 ratio and the “Relative MFI” value amounted to 1.06 ratio.

B17: hu.Ab4.H5L1 (antibody, human IgG1, kappa, V domains shown)
VH: EQQLLESGGGLVQPGGSLRLSCAVSGFSLSNYAMIWVRQAPGKGLEWVGTISLGGYTYYANWAKGRFTISRDSSKTTVYLQMNSLRAEDTAVYFCARARWSTDSAIYTYAFDPWGPGTLVTVSS
VL: DYQMTQSPSSLSASVGDRVTITCQASQSISSYLSWYQQKPGKRPKLLIYKASTLASGVPSRFSGSGSGTDFTLTISSLQPEDFATYYCQQGYTSSNIDNIFGGGTKVEIKR
On to B17, for which, in assay [2], the “Relative EC50” value was 1.02 ratio and the “Relative MFI” value turned out to be 0.9 ratio.

B18: hu.Ab4.H3L1 (antibody, human IgG1, kappa, V domains shown)
VH: EQQLLESGGGLVQPGGSLRLSCAASGFSLSNYAMIWVRQAPGKGLEWVGTISLGGYTYYANWAKGRFTISKDSSKTTVYLQMNSLRAEDTAVYFCARARWSTDSAIYTYAFDPWGPGTLVTVSS
VL: DYQMTQSPSSLSASVGDRVTITCQASQSISSYLSWYQQKPGKRPKLLIYKASTLASGVPSRFSGSGSGTDFTLTISSLQPEDFATYYCQQGYTSSNIDNIFGGGTKVEIKR
Consider B18, for which, in assay [2], the “Relative EC50” value was found to be 1 ratio and the “Relative MFI” value was 1.02 ratio.
